Experimental data published in article PMC3413146 (Nucleic Acids Research, 2012).

Molecular target: T1, RECQL4 (endogenous) (human (endogenous in HeLa), UniProt O94761 1-1208)
T1 sequence (looked up): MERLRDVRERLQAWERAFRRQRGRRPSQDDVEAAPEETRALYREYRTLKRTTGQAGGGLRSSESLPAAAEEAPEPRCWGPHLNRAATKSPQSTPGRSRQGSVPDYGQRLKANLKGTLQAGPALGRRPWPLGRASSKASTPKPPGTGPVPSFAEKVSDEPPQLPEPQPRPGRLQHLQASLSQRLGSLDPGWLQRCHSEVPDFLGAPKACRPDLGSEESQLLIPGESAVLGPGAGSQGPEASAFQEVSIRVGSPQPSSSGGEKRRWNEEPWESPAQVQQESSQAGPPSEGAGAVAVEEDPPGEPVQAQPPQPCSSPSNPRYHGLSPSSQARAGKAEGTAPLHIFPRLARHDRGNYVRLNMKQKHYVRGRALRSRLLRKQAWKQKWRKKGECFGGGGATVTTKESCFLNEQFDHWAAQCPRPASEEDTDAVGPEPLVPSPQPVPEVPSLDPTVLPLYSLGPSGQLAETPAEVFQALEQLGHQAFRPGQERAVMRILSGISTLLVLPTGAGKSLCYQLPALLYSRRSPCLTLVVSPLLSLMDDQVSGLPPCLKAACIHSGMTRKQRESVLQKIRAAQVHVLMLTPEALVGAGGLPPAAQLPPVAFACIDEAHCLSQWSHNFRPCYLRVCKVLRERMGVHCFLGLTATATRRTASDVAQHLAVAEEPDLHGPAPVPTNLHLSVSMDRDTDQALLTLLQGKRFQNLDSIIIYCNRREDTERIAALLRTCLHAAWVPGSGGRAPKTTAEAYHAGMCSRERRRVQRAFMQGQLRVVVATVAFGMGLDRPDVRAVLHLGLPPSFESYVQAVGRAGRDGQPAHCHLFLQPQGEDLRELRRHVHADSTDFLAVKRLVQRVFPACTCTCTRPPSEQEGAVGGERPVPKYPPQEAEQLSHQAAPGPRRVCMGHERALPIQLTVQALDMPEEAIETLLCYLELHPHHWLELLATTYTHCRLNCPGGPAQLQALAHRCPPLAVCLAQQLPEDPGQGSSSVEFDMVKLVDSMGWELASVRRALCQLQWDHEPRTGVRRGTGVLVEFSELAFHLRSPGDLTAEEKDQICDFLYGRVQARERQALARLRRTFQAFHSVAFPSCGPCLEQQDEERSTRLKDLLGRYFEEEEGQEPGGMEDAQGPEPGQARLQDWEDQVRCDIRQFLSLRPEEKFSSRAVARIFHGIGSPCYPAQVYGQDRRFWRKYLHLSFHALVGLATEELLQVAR
Assay: co-IP

B1: BLM (endogenous) (natural protein)
chain: not shown
In the case of B1, the “fold change of the co-immunoprecipitated BLM signal, S-phase against G0–G1 phase” value is reported as roughly 5 fold.
